In US20100297703A1 (published 2010):

What was measured:
Experiment in all cases: anti-FLAG purification of YoeB-3×FLAG from cell surface extract, SDS-PAGE band integration of the co-purified protein
CwlE protein = target: T1, CwlE protein (Bacillus subtilis, UniProt O07532 27-488)
T1 construct: Endogenous protein of the WE1YoeB3FL strain, co-purified with YoeB-3×FLAG
Method: (§1) After the pre-culture, the pre-cultured strain was inoculated in 50 ml of LB liquid medium to bring the OD₆₀₀ value to 0.01, and main culture was conducted until the OD₆₀₀ value reached 2.0. After the completion of the culture, the culture solution was centrifuged at 10,000 rpm for 10 minutes. The supernatant was removed and the precipitate was washed with 25 mM Tris-HCl (pH 7.2). The washed precipitate was suspended in 3M LiCl (25 mM Tris-HCl, pH 7.2) to a density of 10 μl/OD, and the suspension was allowed to stand on ice for 20 minutes. Thereafter, centrifugation was carried out at 4° C. and 10,000 rpm for 10 minutes. The supernatant was recovered, TCA (trichloroacetic acid) was added to a final concentration of 5%, the mixture was thoroughly mixed, and the resulting suspension was allowed to stand on ice for 60 minutes. Thereafter, centrifugation was carried out at 4° C. and 15,000 rpm for 5 minutes. The supernatant was removed, and the precipitate was rinsed with 70% ethanol to thoroughly remove TCA. Thus, outer surface proteins were extracted from the WE1YoeB3FL strain and the WE1E3FL strain, respectively.
(§2) The mixture was mildly (8 rpm) agitated at 4° C. for 1 hour. Thereafter, centrifugation was carried out at 5,000 rpm for 1 minute. The supernatant was removed while carefully refraining from suctioning the precipitated gel. Thereafter, 500 μl of TBS buffer was added to prepare a suspension. Thereafter, the gel was transferred to the Spin Column (Micro Bio Spin Chromatography Columns (BIO RAD)), and the gel was trapped via centrifugation at 1,000 g for 30 seconds. Thereafter, the resultant was washed three times with 500 μl of TBS buffer. Subsequently, 100 μl of Glycine HCl elution buffer (0.1M glycine-HCl) was sequentially added thereto and thoroughly agitated. Elution was carried out 1 minute later at 1,000 g for 30 seconds, and this procedure was repeated two times. The products were combined to prepare an eluted solution.
(§3) Subsequently, the band pattern of the resulting eluted solution was inspected via SDS-PAGE. Electrophoresis was carried out by charging proteins in amounts corresponding to the amount extracted from the cells (OD₆₀₀=200) to the relevant lanes.

CwlF protein = target: T2, CwlF protein (Bacillus subtilis, UniProt P54421 26-334)
T2 construct: Endogenous protein of the WE1YoeB3FL strain, co-purified with YoeB-3×FLAG
Method: as §1, §2, §3

YojL protein = YojL protein (Bacillus subtilis, UniProt O31852 27-414)
Method: as §1, §2, §3

T1 sequence (O07532 27-488 limits assumed): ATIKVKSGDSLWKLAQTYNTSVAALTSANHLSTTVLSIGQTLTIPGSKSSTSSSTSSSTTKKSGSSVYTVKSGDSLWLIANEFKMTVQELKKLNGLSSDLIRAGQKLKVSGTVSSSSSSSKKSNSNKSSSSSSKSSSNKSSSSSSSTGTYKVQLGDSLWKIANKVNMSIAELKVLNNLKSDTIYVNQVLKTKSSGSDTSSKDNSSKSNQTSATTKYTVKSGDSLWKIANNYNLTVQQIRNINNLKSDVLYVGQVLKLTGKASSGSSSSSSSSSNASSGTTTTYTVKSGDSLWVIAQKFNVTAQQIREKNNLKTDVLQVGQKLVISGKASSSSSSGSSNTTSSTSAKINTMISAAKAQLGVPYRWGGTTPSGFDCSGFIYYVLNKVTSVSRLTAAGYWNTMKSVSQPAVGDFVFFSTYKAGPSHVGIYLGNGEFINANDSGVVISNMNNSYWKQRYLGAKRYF
T2 sequence (P54421 26-334 limits assumed): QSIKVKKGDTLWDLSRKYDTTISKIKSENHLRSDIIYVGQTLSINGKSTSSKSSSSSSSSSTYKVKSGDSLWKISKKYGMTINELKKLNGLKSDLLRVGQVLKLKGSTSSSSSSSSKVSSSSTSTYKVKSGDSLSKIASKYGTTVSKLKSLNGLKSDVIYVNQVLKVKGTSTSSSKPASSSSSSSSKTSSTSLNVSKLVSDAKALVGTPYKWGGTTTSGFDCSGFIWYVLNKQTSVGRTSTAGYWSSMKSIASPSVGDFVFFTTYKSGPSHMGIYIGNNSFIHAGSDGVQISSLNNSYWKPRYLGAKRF

- Integrated value (CwlE protein): 30100
- Integrated value/Molecular weight (CwlE protein): 0.59
- Proportion relative to YoeB (1) (CwlE protein): 0.89
- Integrated value (CwlF protein): 1250
- Integrated value/Molecular weight (CwlF protein): 0.03
- Proportion relative to YoeB (1) (CwlF protein): 0.05
- Integrated value (YojL protein): 989
- Integrated value/Molecular weight (YojL protein): 0.02
- Proportion relative to YoeB (1) (YojL protein): 0.03
B1: YoeB-3×FLAG protein (other)
chain: KNTSGDLSQKQALQLALSAREHFWNTMSGHNPKVKKAVCPSGTFEYQNLQYVYMCSDLGTKAKAVNYLTPIFTKTAIEKGFKDYHFTVSKGKLAVPIGDGDNLLNWKKSTAKLISKKGSTITYEFTVPTLDGSPSAKRKVTFVKENKKWKVNQFDAVI
notes: Expressed in B. subtilis WE1 from pCA3FLYoeB with IPTG, extracted from the cell surface with LiCl and purified on anti-FLAG M2 gel; also called YoeB protein (bait from the WE1YoeB3FL strain); not shown: 3×FLAG tag
